These results are taken from patent US20210347873A1 (SHANGHAI PHARMAEXPLORER, published 2021).

In experiment [1] the target is biotinylated hBLyS-ECD (human) (UniProt Q9Y275). The experiment can be described thus: blocking ELISA: biotinylated hBLyS-ECD on coated BAFF R, antibody 100 nM. A general note: In an ELISA, binding on a coated surface is turned into a signal by an enzyme label.
Target sequence in this assay (Q9Y275 134-285): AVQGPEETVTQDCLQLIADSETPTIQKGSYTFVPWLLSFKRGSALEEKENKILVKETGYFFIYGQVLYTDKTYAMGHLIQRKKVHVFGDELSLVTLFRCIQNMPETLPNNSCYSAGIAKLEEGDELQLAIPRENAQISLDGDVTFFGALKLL
The target is the same in experiment [2]. The experiment can be described thus: blocking ELISA: biotinylated hBLyS-ECD on coated BAFF R, antibody 0.8 nM.
Target sequence in this assay (Q9Y275 134-285): as above
For experiment [3] the target is unchanged. The experiment can be described thus: ELISA, biotinylated hBLyS-ECD captured on streptavidin; antibody 0.534 nM.
Target sequence in this assay (Q9Y275 134-285): as above
Experiment [4] shares this target. The experiment can be described thus: ELISA, biotinylated hBLyS-ECD captured on streptavidin; antibody 66.7 nM.
Target sequence in this assay (Q9Y275 134-285): as above
The target is the same in experiment [5]. The experiment can be described thus: ELISA, biotinylated hBLyS-ECD captured on streptavidin; antibody 13.3 nM.
Target sequence in this assay (Q9Y275 134-285): as above
For experiment [6] the target is unchanged. The experiment can be described thus: ELISA, biotinylated hBLyS-ECD captured on streptavidin; antibody 2.67 nM.
Experiment [7] addresses cynomolgus BLyS (full length, arginine to histidine at position 132) on CHO-K1 cells (cynomolgus). The experiment can be described thus: flow cytometry, CHO-K1 cynoBLyS cells, antibody 0.00427 nM. (In general: A flow cytometer gives signals particle by particle.)
Target sequence in this assay (Q9Y275 other isoform, or with tags, fused parts or gaps limits assumed): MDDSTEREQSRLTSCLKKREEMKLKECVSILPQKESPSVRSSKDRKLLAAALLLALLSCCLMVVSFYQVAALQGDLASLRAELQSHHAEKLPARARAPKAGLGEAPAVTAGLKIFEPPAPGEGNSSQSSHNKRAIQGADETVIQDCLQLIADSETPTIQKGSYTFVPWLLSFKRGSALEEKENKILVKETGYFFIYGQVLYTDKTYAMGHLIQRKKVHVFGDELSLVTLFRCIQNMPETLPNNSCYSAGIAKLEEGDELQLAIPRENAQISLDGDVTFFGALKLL
The target of experiment [8] is biotinylated hBLyS-ECD (human) (UniProt Q9Y275). The experiment can be described thus: ELISA, biotinylated hBLyS-ECD captured on streptavidin; antibody 0.0213 nM.
Target sequence in this assay (Q9Y275 134-285): as the sequence (Q9Y275 134-285) above
The target is the same in experiment [9]. The experiment can be described thus: ELISA, biotinylated hBLyS-ECD captured on streptavidin; antibody 0 nM (blank).
Experiment [10] shares this target. The experiment can be described thus: blocking ELISA: biotinylated hBLyS-ECD on coated BAFF R, antibody 0.16 nM.
For experiment [11], the target named is human BLyS (full length, arginine to histidine at position 132) on CHO-K1 cells (human) (UniProt Q9Y275). The experiment can be described thus: flow cytometry, CHO-K1 hBLyS cells, antibody 0 nM.
For experiment [12] the target is unchanged. The experiment can be described thus: flow cytometry, CHO-K1 hBLyS cells, antibody 0.00427 nM.
Experiment [13] addresses biotinylated hBLyS-ECD (human) (UniProt Q9Y275). The experiment can be described thus: blocking ELISA: biotinylated hBLyS-ECD on coated BAFF R, antibody 4 nM.
The target of experiment [14] is cynomolgus BLyS (full length, arginine to histidine at position 132) on CHO-K1 cells (cynomolgus). The experiment can be described thus: flow cytometry, CHO-K1 cynoBLyS cells, antibody 13.3 nM.
Experiment [15] concerns the target biotinylated hBLyS-ECD (human) (UniProt Q9Y275). The experiment can be described thus: ELISA, biotinylated hBLyS-ECD captured on streptavidin; antibody 0.00427 nM.
The target is the same in experiment [16]. The experiment can be described thus: blocking ELISA: biotinylated hBLyS-ECD on coated BAFF R, antibody 20 nM.
Experiment [17] addresses T1, biotinylated hBLyS-ECD (human, UniProt Q9Y275 134-285, biotinylated with Biotin-X-X-NHS (molar ratio 7:1); sites not stated).
T1 construct: also called biotinylated immunogen; biotinylated hBLvS-ECD
The experiment can be described thus: ELISA on captured biotinylated hBLyS-ECD; antibody 66.7 nM.

Experiment [18] concerns the target T1, biotinylated hBLyS-ECD. The experiment can be described thus: BAFF R-coated ELISA, biotinylated hBLyS-ECD bound in presence of antibody 0.0064 nM.
The target of experiment [19] is T1, biotinylated hBLyS-ECD. The experiment can be described thus: BAFF R-coated ELISA, biotinylated hBLyS-ECD bound in presence of antibody 0 nM.
In experiment [20] the target is T1, biotinylated hBLyS-ECD. The experiment can be described thus: ELISA on captured biotinylated hBLyS-ECD; antibody 0 nM (background).
Experiment [21] deals with T1, biotinylated hBLyS-ECD. The description is as above. This is another data set of the same source.
For experiment [22], the target named is T2, extracellular domain of human BLyS protein (hBLyS-ECD), His-tagged, Ala134-Leu285 (human, UniProt Q9Y275 134-285).
T2 construct: Expressed in HEK293 cells and purified on a Ni column; also called immunogen
The experiment can be described thus: SPR (Biacore), antibody captured by anti-human Fc, hBLyS-ECD as analyte.

Experiment [23] deals with T1, biotinylated hBLyS-ECD. The experiment can be described thus: ELISA on captured biotinylated hBLyS-ECD; antibody 0.0213 nM.
Experiment [24] concerns the target T1, biotinylated hBLyS-ECD. The experiment can be described thus: ELISA on captured biotinylated hBLyS-ECD; antibody 13.3 nM.
The target in experiment [25] is T1, biotinylated hBLyS-ECD. The experiment can be described thus: BAFF R-coated ELISA, biotinylated hBLyS-ECD bound in presence of antibody 4 nM.
Experiment [26] has as its target T1, biotinylated hBLyS-ECD. The experiment can be described thus: BAFF R-coated ELISA, biotinylated hBLyS-ECD bound in presence of antibody 100 nM.
In experiment [27] the target is T1, biotinylated hBLyS-ECD. The experiment can be described thus: BAFF R-coated ELISA, biotinylated hBLyS-ECD bound in presence of antibody 0.16 nM.

The Kd is the free concentration of one partner at which half of the binding sites on the other are occupied at equilibrium, for simple one-to-one binding. A word on the koff: it is a measure of how fast the partners let go of each other. A high value points to a short-lived complex. The term kon denotes the rate constant with which the complex forms. A higher kon goes with fast association.

T2 sequence (Q9Y275 134-285): as above
T1 sequence (Q9Y275 134-285): as above
Chain of human BLyS (full length, arginine to histidine at position 132) on CHO-K1 cells (human) (Q9Y275 whole entry R130H): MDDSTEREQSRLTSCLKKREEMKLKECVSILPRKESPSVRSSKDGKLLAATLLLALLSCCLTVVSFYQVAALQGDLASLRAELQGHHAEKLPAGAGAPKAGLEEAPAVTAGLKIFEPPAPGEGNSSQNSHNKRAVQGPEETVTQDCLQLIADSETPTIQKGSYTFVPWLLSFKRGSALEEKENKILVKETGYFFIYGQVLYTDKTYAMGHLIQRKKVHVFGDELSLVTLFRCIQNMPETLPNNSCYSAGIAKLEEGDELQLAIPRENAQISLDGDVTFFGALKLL

Turning to mIgG Control (antibody), the OD450 nm came out at 1.3 OD450 nm in experiment [1]; 1.4 OD450 nm in experiment [2]; 0.0594 in experiment [3]; 0.0708 in experiment [4]; 0.0627 in experiment [5]; 0.0659 in [6]. Further, the OD450 nm in experiment [8] came to 0.0595; in experiment [9] it was 0.0574; in [10] it was 1.47 OD450 nm; in [13] it was 1.41 OD450 nm; in experiment [15], 0.0695; in experiment [16], 1.36 OD450 nm. In addition, the MFI worked out at 20.4 MFI in experiment [7], 30.3 MFI in [11], 30.9 MFI in [12] and 20.7 MFI in [14].
In the case of hIgG Control (antibody), the OD450 nm amounted to 1.22 OD450 nm in [1]; 1.14 OD450 nm in [2]; 0.0916 in experiment [3]; 0.148 in [4]; 0.102 in experiment [5]; 0.0956 in experiment [6]. In addition, the OD450 nm in experiment [8] stood at 0.111; in [9] it was 0.103; in [10], 1.08 OD450 nm; in experiment [13], 1.09 OD450 nm; in experiment [15], 0.108; in experiment [16] it was 1.06 OD450 nm. In addition, the MFI in [7] was found to be 22 MFI; in experiment [11], 27.2 MFI; in experiment [12], 32.3 MFI; in experiment [14], 26.7 MFI.

B1: c97A3C2H4 (antibody, V domains shown)
VH: EVKLVESGGGLVQPGGSLKLSCAASGFTFSTYTMSWVRQTPEKRLEWVAYISYGGGSTSYPDTVKGRFTISRDNAKNTLYLQMSSLKSEDTAIYYCTRHVTVVENSMDYWGQGTSVTVSS
VL: DILLTQSPDILSVSPGERVSFSCRASQSIGTSIHWYQQRTNGSPRLLIKYVSESFSGTPSRFSGSGSGTAFTLTINSVESEDIADYYCQQTHSWPWTFGGGTKLEIK
notes: also called chimeric antibody c97A3C2H4
Take B1: the OD450 nm in the experiment with biotinylated hBLyS-ECD [17] is 2.41 OD450 nm; with biotinylated hBLyS-ECD [18] it was 1.96 OD450 nm; with biotinylated hBLyS-ECD [19] it was 1.91 OD450 nm; with biotinylated hBLyS-ECD [20], 0.165 OD450 nm; in the experiment with biotinylated hBLyS-ECD [21], 0.122 OD450 nm; with biotinylated hBLyS-ECD [23], 0.936 OD450 nm. For the same molecule, the OD450 nm amounted to 2.34 OD450 nm with biotinylated hBLyS-ECD [24], 1.07 OD450 nm with biotinylated hBLyS-ECD [25], 0.474 OD450 nm in the experiment with biotinylated hBLyS-ECD [26] and 1.79 OD450 nm in the experiment with biotinylated hBLyS-ECD [27]. In addition, the Kd in [22] stood at 0.446 nM. This molecule came in with a koff in experiment [22] of 7.34e-05 s⁻¹. The molecule also registered an on-rate (kon) in experiment [22] of 165000 M⁻¹ s⁻¹.

B2: c8E7D9C7F5 (antibody, V domains shown)
VH: QVQLQQSGVELARPGASVKLSCKASGYTFTSYGISWVKQRTGQALEWIGEIYPRSGNTYYNEKFKGKATLTADKSSSTAYMELRSLTSEDSAVYFCARSGPITTLVATDYGMDYWGQGTSVTVSS
VL: DIVLTQSPASLAVSLGQRATISCRASKSVSTSSYSYMHWYQQKPGQPPKLLIKFASNLESGVPARFSGSGSGTDFTLNIHPVEEEDAATYYCQHSREFPYTFGGGTKLEIK
notes: also called chimeric antibody c8E7D9C7F5
In the case of B2, the OD450 nm was 2.32 OD450 nm with biotinylated hBLyS-ECD [17]; 2.01 OD450 nm with biotinylated hBLyS-ECD [18]; 1.95 OD450 nm in the experiment with biotinylated hBLyS-ECD [19]; 0.322 OD450 nm with biotinylated hBLyS-ECD [20]; 0.0918 OD450 nm with biotinylated hBLyS-ECD [21]; 0.574 OD450 nm with biotinylated hBLyS-ECD [23]. For the same molecule, the OD450 nm with biotinylated hBLyS-ECD [24] came to 2.37 OD450 nm; with biotinylated hBLyS-ECD [25], 1.04 OD450 nm; with biotinylated hBLyS-ECD [26] it was 0.53 OD450 nm; in the experiment with biotinylated hBLyS-ECD [27], 1.85 OD450 nm. In addition, in [22], the equilibrium dissociation constant (Kd) is 2.38 nM. This molecule also came in with a koff in experiment [22] of 0.00109 s⁻¹. In experiment [22], this molecule gave an on-rate (kon) of 456000 M⁻¹ s⁻¹.
